According to publication PMC6934973 (Iranian Journal of Pharmaceutical Research : IJPR, 2019):

Assay: Parallel Artificial Membrane Permeability Assay (PAMPA)
Type: in vitro ADME
Conditions: for Papp: read-out: Pe × 10-6 (cm/s), effective permeability; for permeability compared to norbuprenorphine-Leu-enkephalin: result in words
[1] = 200 μM, pH 7.4, 20% 1-propanol cosolvent, 4 h
[2] = 200 μM, pH 7.4, 20% 1-propanol cosolvent, 4 h, room temperature

Structure (SMILES) | % PAMPA Transport after 4h [1] [%] | %Membrane retention [2] [%] | Papp [2] [×10⁻⁶ cm/s] | permeability compared to norbuprenorphine-Leu-enkephalin | Pe × 10-6 (cm/s), effective permeability [2]
COc1ccc2c3c1O[C@@H]1[C@]34CCN(C(=O)[C@H](CCSC)NC(=O)[C@H](Cc3ccccc3)NC(=O)CNC(=O)CNC(=O)[C@@H](N)Cc3ccc(O)cc3)[C@H](C2)[C@]42CC[C@@]1(OC)/C(=C(\C)C(C)(C)C)C2 [Compound 14] | 1.6 | 0 | 0.77 | – | –
COc1ccc2c3c1O[C@@H]1[C@]34CCN(C(=O)[C@H](CCSC)NC(=O)[C@H](Cc3ccccc3)NC(=O)CNC(=O)CNC(=O)[C@@H](N)Cc3ccc(O)cc3)[C@H](C2)[C@]42CC[C@@]1(OC)/C(=C(/C)C(C)(C)C)C2 [Compound 15] | 2.9 | 0 | 1.42 | – | –
CO[C@]12CC[C@@]3(C/C1=C(/C)C(C)(C)C)[C@H]1Cc4ccc(O)c5c4[C@@]3(CCN1C(=O)[C@H](CC(C)C)NC(=O)[C@H](Cc1ccccc1)NC(=O)CNC(=O)CNC(=O)[C@@H](N)Cc1ccc(O)cc1)[C@H]2O5 [Compound 17] | 6.8 | 10.3 | 3.46 | – | –
CO[C@]12CC[C@@]3(C/C1=C(\C)C(C)(C)C)[C@H]1Cc4ccc(O)c5c4[C@@]3(CCN1C(=O)[C@H](CC(C)C)NC(=O)[C@H](Cc1ccccc1)NC(=O)CNC(=O)CNC(=O)[C@@H](N)Cc1ccc(O)cc1)[C@H]2O5 [Compound 18] | 4.3 | 30.9 | 2.13 | – | –
CO[C@]12CC[C@@]3(CC1=C(C)C(C)(C)C)[C@H]1Cc4ccc(O)c5c4[C@@]3(CCN1C(=O)CCC(=O)N[C@@H](Cc1ccc(O)cc1)C(=O)NCC(=O)NCC(=O)N[C@@H](Cc1ccccc1)C(=O)N[C@@H](CC(C)C)C(=O)O)[C@H]2O5 [Compound 23] | 1.2 | 0 | 0.63 | lower permeability | –
CO[C@]12CC[C@@]3(CC1=C(C)C(C)(C)C)[C@H]1Cc4ccc(O)c5c4[C@@]3(CCN1C(=O)c1ccccc1C(=O)N[C@@H](Cc1ccc(O)cc1)C(=O)NCC(=O)NCC(=O)N[C@@H](Cc1ccccc1)C(=O)N[C@@H](CC(C)C)C(=O)O)[C@H]2O5 [Compound 24] | 1.9 | 0 | 0.92 | lower permeability | –
CC(C)NCC(O)COc1cccc2ccccc12 (centres unmarked) [Propanolol, reference compound] | 9.9 | 21.8 | – | – | 5.23 × 10-6 cm/s
CC(C)C[C@H](NC(=O)[C@H](Cc1ccccc1)NC(=O)CNC(=O)CNC(=O)[C@@H](N)Cc1ccc(O)cc1)C(=O)O [Standard Leu-enkephalin, Leu-enkephalin, reference compound] | 0.8 | 0 | 0.38 | – | –
CSCC[C@H](NC(=O)[C@H](Cc1ccccc1)NC(=O)CNC(=O)CNC(=O)[C@@H](N)Cc1ccc(O)cc1)C(=O)O [Standard Met-enkephalin, Met-enkephalin, reference compound] | 0.2 | 0 | 0.09 | – | –
